This note sets out measurements from US20020147306A1 (published 2002).

No end group written: not given here.

To fix the notation:
B2: GST-syntenin fusion protein (full length: residues 1-299) (other, mouse, UniProt O08992 1-299, looked up)
chain: MSLYPSLEDLKVDKVIQAQTAYSANPASQAFVLVDASAALPPDGNLYPKLYPELSQYMGLSLNEAEICESMPMVSGAPAQGQLVARPSSVNYMVAPVTGNDAGIRRAEIKQGIREVILCKDQDGKIGLRLKSIDNGIFVQLVQANSPASLVGLRFGDQVLQINGENCAGWSSDKAHKVLKQAFGEKITMTIRDRPFERTVTMHKDSSGHVGFIFKSGKITSIVKDSSAARNGLLTDHHICEINGQNVIGLKDAQIADILSTAGTVVTITIMPTFIFEHIIKRMAPSIMKSLMDHTIPEV
notes: range 1-299; also called full-length syntenin; GST fusion of full-length syntenin; not shown: glutathione S-transferase (GST) from vector pGEX4T2

Assay [1] addresses B2. Kind of assay: fluorescence polarization, 25 nM fluorescein-labelled peptide, GST fusion titrated, 22 C. On the procedure: (§1) FIGS. 5A and 5B. Fluorescence polarization analysis of GST-FAP-1 PDZ3, GST-FAP-1 PDZ5 and GST-syntenin binding to Fluorescein-labelled peptides corresponding to the C-terminus of ephrin B1. FIG. 5 A, Solutions containing the indicated final concentration of GST-FAP-1 PDZ3 ( ) or GST-FAP-1 PDZ5 ( ) fusion protein in mixtures containing 25 nM fluorescein-labelled NIYYKV peptide probe, 20 mM phosphate pH 7.0, 100 mM NaCl, and 2 mM dithiothreitol (DTT) were monitored for fluorescence polarization at 22° C. The GST-FAP-1 PDZ5 fusion protein was also measured for binding to the phosphorylated peptides, NIpYYKV ( ), NiYpYKV ( ) and NIpYpYKV ( ). […] FIG. 5B, A Binding of a GST fusion of full-length syntenin to the NIYYKV ( ), NIpYYKV ( ), and NIpYpYKV ( ) peptides as measured by fluorescence polarization.
(§2) Binding constant determination and peptide competition studies were carried out using fluorescence polarization on a Beacon 2000 Fluorescence Polarization System (Pan Vera, Wis.) equipped with a 100-μl sample chamber. Fluorescein-labeled probes were prepared through reaction of B ephrin C-terminal peptides with 5-(and-6-)-carboxyfluorescein, succinimidyl ester (Molecular Probes, Oreg.) and purified by reverse-phase HPLC. The authenticity of the fluorescein-labelled peptides were confirmed by mass spectroscopy. In the binding studies, the fluorescein-labelled peptide probe was dissolved in 20 mM phosphate pH 7.0, 100 mM NaCl, and 2 mM DTT to a concentration of 25 nM and a known quantity of GST- fusion protein added. The reaction mixtures were allowed to stand for 10 min at room temperature prior to each measurement. All fluorescence polarization measurements were conducted at 22° C.
(§3) Fluorescence polarization experiments measuring GST-syntenin fusion protein binding to fluorescein-labeled NIYYKV (SEQ. ID. NO. 10) and NIpYYKV (SEQ. ID. NO. 8) peptides yielded nearly identical binding curves (FIG. 5B).

Assay [2] addresses T1, ephrin B1 Val deletion (UniProt P98172 28-346, limits assumed).
T1 construct: whole, on cells; Tested from lysates of transfected Cos-1 cells; also called ephrin B1 Val deletion mutant; ephrin B1 lacking the C-terminal Val
T1 sequence (looked up): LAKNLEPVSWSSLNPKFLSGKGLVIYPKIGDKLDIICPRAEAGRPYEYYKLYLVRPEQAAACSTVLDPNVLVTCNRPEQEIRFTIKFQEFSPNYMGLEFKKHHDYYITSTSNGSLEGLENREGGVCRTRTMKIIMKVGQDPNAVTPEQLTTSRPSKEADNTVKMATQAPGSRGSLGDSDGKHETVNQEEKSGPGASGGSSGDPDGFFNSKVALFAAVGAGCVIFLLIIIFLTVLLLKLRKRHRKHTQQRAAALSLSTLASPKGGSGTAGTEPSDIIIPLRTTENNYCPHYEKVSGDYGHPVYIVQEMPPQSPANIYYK
Kind of assay: GST mix with lysates of transfected Cos-1 cells, anti-ephrin B1 immunoblot. Here is the method: FIGS. 3A-C. FAP-1 PDZ5 and syntenin bind specifically to ephrin B1 in GST-mixes. Cos-1 cells were transiently transfected with either wild-type ephrin B1 (W. T.) or the ephrin B1 Val deletion (Val Δ) or were untransfected. Cell lysates were incubated with the GST fusion proteins as indicated and analyzed by immunoblotting with anti-ephrin B1 antibody. Immunoprecipitated ephrin B1 or ephrin B1 Val Δ were included as a positive control. FIG. 3A and FIG. 3B, GST-mixes with fusion proteins of FAP-1. C and D, GST-mixes with fusion proteins of syntenin.
(§4) Cos-1 cells were maintained in DMEM supplemented with 10% fetal bovine serum (FBS). Transient transfections were performed using Lipofectin reagent and Opti-MEM medium (Life Technologies Inc.) as outlined by the manufacturer. To reduce phosphorylation of ephrin B1 by binding to endogenously expressed EphB receptors or by stimulation with serum growth factors, transfected cells were transferred from 10 cm to 15 cm plates 24 h after transfection and serum starved in DMEM 0.5% FBS 12 h prior to cell lysis. Transfected cells were rinsed once in PBSA and lysed in PLC lysis buffer (5) with 10 μg/ml aprotonin, 10 μg/ml leupeptin, 1 mM sodium vanadate and 1 mM phenylmethylsulfonyl fluoride added. Immunoprecipitations were performed for 1 h at 4° C. using 1 μg anti-ephrin B1 antibody or 1 μg anti-IL-3 receptor a antibody with protein A-sepharose. […]
(In general: A western blot detects proteins with antibodies after separation by electrophoresis.)

The target in assay [3] is fluorescein-labelled NIpYYKV peptide. Kind of assay: fluorescence polarization, 25 nM fluorescein-labelled peptide, GST fusion titrated, 22 C. Here is the method: as §1, §2, §3
Assay [4] deals with fluorescein-labelled NIpYpYKV peptide. The assay is described as above. On the procedure: as §1, §2, §3
A further assay has as its target T2, protein A sepharose (UniProt P38507 37-477).
T2 construct: Bead-only control in the co-immunoprecipitation; also called protein A sepharose alone
The assay is described as follows: precipitation from Cos-1 cells co-transfected with ephrin B1 and syntenin-FLAG, anti-FLAG blot. On the procedure: (§5) FIG. 6. Co-immunoprecipitation of syntenin-FLAG with ephrin B1. Cos-1 cells were co-transfected with either ephrin B1 and syntenin-FLAG or with the ephrin B1 Val deletion and syntenin-FLAG as indicated. Cell lysates were immunoprecipitated with antibodies against ephrin B1 or IL-3 receptor a or were treated with protein A sepharose only. Immunocomplexes were subjected to SDS-PAGE (10%) and blotted with anti-FLAG antibodies.
as §4

Assay [5] deals with T1, ephrin B1 Val deletion. Kind of assay: co-immunoprecipitation from co-transfected Cos-1 cells, anti-FLAG blot. On the procedure:
as §5, §4

B1: fluorescein-labelled NIYYKV peptide (peptide)
peptide: NIYYKV
modifications: also: 5-(and-6-)carboxyfluorescein label, site not given here
notes: 25 nM probe in fluorescence polarization; also called unphosphorylated peptide probe
Usually Kd stands for the concentration at which binding is half-saturated. The low end stands for a tighter complex, the high end for a looser complex. In assay [1], B1 yielded a Kd of 17.7 µM.

For the molecule B2, in the assay with ephrin B1 Val deletion [2], the binding result was “no binding”. Also, the Kd in assay [3] came to 15.4 µM; in assay [4], 151 µM.

B3: syntenin-FLAG (other, mouse, UniProt O08992 1-299, looked up, not shown: small tags and cut ends)
chain: MSLYPSLEDLKVDKVIQAQTAYSANPASQAFVLVDASAALPPDGNLYPKLYPELSQYMGLSLNEAEICESMPMVSGAPAQGQLVARPSSVNYMVAPVTGNDAGIRRAEIKQGIREVILCKDQDGKIGLRLKSIDNGIFVQLVQANSPASLVGLRFGDQVLQINGENCAGWSSDKAHKVLKQAFGEKITMTIRDRPFERTVTMHKDSSGHVGFIFKSGKITSIVKDSSAARNGLLTDHHICEINGQNVIGLKDAQIADILSTAGTVVTITIMPTFIFEHIIKRMAPSIMKSLMDHTIPEV
notes: range 1-299; Co-expressed with ephrin B1 in Cos-1 cells
For B3, the binding result with protein A sepharose and with ephrin B1 Val deletion [5] was “no binding” in each case.
